Here are results for 7 molecules from patent US20250057883A1, “CONTROLLABLE STIMULATION OF GENETICALLY ENGINEERED LYMPHOCYTES FOR THE TREATMENT OF CANCER” (THE TRUSTEES OF THE UNIVERSITY OF PENNSYLVANIA, priority 2021, published 2025).

“Also recorded” adds a separate entry of the source.

Test [1] deals with T1, interleukin-6 receptor (IL-6R) (Homo sapiens, UniProt P08887).
T1 construct: endogenous in cells; host or cells: subjects with cytokine release syndrome (in vivo)
T1 sequence (P08887 20-468): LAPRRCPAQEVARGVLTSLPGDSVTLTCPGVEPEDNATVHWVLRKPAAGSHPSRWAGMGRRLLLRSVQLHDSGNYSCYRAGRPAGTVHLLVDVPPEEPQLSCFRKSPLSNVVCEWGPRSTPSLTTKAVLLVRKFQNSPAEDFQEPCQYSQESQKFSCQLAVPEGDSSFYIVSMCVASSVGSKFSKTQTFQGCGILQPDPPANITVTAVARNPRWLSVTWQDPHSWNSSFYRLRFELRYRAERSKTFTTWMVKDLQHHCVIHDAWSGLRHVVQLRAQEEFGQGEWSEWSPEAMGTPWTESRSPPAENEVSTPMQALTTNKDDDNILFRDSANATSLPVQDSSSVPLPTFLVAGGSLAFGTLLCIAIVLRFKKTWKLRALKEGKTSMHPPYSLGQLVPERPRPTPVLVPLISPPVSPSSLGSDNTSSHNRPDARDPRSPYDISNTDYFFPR
Conditions: following CAR T-cell infusion; cited from earlier work.

The subject of test [2] is T cells expressing the truncated NGFR. In words: Stimulation of negative control T cells (truncated NGFR) for 7 days, flow cytometry. In kind it is cell-based, human. Conditions: 0.1 μg/ml, FIG. 3 top. Here is the method: (§1) FIG. 3: T cells transduced to express (i) the thrombopoietin receptor (TPOR) or (ii) the GCF receptor with a deletion at aa 715 (GCSFRd715) are active and can drive T cell proliferation via the non-canonical JAK2 pathway. T cells expressing GCSFRd715, TPOR, or the truncated NGFR as a control were stimulated for 7 days with IL-2/IL-7/IL-15 (all at 5 ng/ml; denoted as CK; positive control condition), 0.1 μg/ml recombinant thrombopoietin (TPO), 0.1 μg/ml TPO agonist eltrombopag (EP), or 0.1 μg/ml GCSF. Cell number (top) or percent transgenic cells (bottom) were quantified using flow cytometry at 7 days.
(§2) Healthy donor T cells were transduced to express (i) the thrombopoietin receptor (TPOR) or (ii) the GCF receptor with a deletion at aa 715 (GCSFRd715). T cells expressing GCSFRd715, TPOR, or the truncated NGFR as a control were stimulated for 7 days with IL-2/IL-7/IL-15 (all at 5 ng/ml; denoted as CK; positive control condition), 0.1 μg/ml recombinant thrombopoietin (TPO), 0.1 μg/ml TPO agonist eltrombopag (EP), or 0.1 μg/ml GCSF. Cell number (FIG. 3, top) or percent transgenic cells (FIG. 3, bottom) were quantified using flow cytometry at 7 days.

For test [3], the system named is T cells expressing TPOR. In words: Stimulation of T cells expressing TPOR for 7 days, flow cytometry. Type of test: cell-based, human. Conditions: 0.1 μg/ml; for TPOR fraction after addition: enriched from 12.9%, FIG. 4 bottom panel. Here is the method:
as §1
(§3) FIG. 4: Exemplary flow cytometry plots showing that exposure of transgenic cytokine receptor transduced cells to the cognate cytokine (i.e. GCSFRd715 to GCSF; TPOR to TPO or EP) leads to enrichment of CAR expressing cells at 7 days. Addition of GCSF enriched the GCSRFd715 transgenic cell fraction from 15.6% to 64.9% (top panel). Addition of TPO enriched the TPOR fraction from 12.9% to 82% and addition of EP enriched the TPOR fraction from 12.9% to 55.9% (bottom panel).
as §2

Test [4] deals with T2, TPO-R (Homo sapiens, UniProt P40238).
T2 construct: host or cells: CAR T cells transduced with TPO-R by other groups
T2 sequence (P40238 26-635): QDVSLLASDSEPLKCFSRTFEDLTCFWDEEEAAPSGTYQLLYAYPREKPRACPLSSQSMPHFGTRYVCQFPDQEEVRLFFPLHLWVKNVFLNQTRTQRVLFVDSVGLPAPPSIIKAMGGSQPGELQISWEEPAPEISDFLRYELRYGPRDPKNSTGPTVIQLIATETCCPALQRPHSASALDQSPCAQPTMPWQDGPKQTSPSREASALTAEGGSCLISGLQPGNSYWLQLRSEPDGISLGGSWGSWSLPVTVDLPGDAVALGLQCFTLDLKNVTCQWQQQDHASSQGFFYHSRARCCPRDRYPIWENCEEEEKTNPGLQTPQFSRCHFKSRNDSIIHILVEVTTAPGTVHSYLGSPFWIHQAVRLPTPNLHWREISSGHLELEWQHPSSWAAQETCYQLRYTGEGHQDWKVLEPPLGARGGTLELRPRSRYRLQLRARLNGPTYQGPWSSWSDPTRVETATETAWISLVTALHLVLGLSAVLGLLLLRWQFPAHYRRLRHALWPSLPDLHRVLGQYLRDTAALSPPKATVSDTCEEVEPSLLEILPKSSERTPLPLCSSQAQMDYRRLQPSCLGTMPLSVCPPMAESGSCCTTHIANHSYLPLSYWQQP
Conditions: CART cells transduced with TPO-R; cited from earlier work.

For test [5], the system named is STAT3 and STAT5. As to the kind of experiment: Phosphorylation of STAT3 and STAT5 in TPOR expressing T cells, flow cytometry. In kind it is cell-based, human. Conditions: 0.1 μg/ml, 24 hours. The protocol: FIG. 5: TPOR stimulation leads to activation of STAT3 and STAT5. Healthy donor Tcells expressing TPOR or untransduced control T cells were stimulated for 24 hours with 5 ng/ml IL-2/IL-7/IL-15 (CK), 0.1 μg/ml TPO or 0.1 μg/ml Eltrombopag (EP). Following stimulation cells were fixed and the phosphorylation of STAT3 and STAT5 quantified using flow cytometry.
TPOR stimulation led to activation of STAT3 and STAT5 (FIG. 5). Healthy donor T cells expressing TPOR or untransduced control T cells were stimulated for 24 hours with 5 ng/ml IL-2/IL-7/IL-15 (CK), 0.1 μg/ml TPO, or 0.1 μg/ml Eltrombopag (EP). Following stimulation cells were fixed and the phosphorylation of STAT3 and STAT5 quantified using flow cytometry.

Test [6] has as its system T cells transduced with reporter+TPO-R. In words: Expansion of TPO-R transduced T cells in vitro. In kind it is cell-based, human. Conditions: transduced using the MV pseudotyped lentivector; FIG. 2D. The source says:
FIGS. 2A-2D: Transgenic TPO-R enables controllable T cell expansion. T cells were transduced with the reporter NGFR, or with reporter+the thrombopoietin receptor (TPOR) and stimulated with eltrombopag, a specific small molecule agonist of TPOR, in vitro. FIG. 2A: Cell number is shown to increase only in the presence of the TPOR agonist. […] FIG. 2C: All cells that express the reporter (tNGFR) also express the TPO receptor.
Recombinant erythropoietin (Epo) and G-CSF are commercially approved for the treatment for anemia of chronic kidney disease, and for chemotherapy-related neutropenia, respectively. Clinical development of a recombinant thrombopoietin (TPO) was superseded by two TPO receptor (TPO-R, also known as c-Mpl) peptidomimetic drugs that are now approved for the treatment of immune thrombocytopenic purpura (romiplostim, and eltrombopag). […] Results of the TPO-R experiments were recapitulated herein (FIGS. 2A-2D). T cells were transduced with the reporter NGFR, or with reporter+TPO-R and stimulated with eltrombopag, a specific small molecule agonist of TPOR, in vitro. […] In FIG. 2C, it is shown that there is a 1:1 expression of the reporter NGFR with the TPO receptor after 12 days of eltrombopag treatment.

Test [7] concerns Human T cells. In words: T cell expansion after MV pseudotyped lentiviral transduction with mbIL15. Type of test: cell-based. The source says: FIGS. 1A-1E: Transgenic IL15 and IL15Ra-IL15 expression to enhances T cell proliferation. Human T cells were transduced with a measles virus (MV) pseudotyped lentiviral vector redirected specifically against human CD4, encoding the NGFR reporter alone (“no IL15 construct”), soluble IL15 along with the reporter, or membrane-bound IL15 along with the reporter. Transduction is shown in FIG. 1B, where the transgene is detected using a co-expressed reporter molecule (tNGFR). Quantification of soluble IL15 is depicted in FIG. 1C. No additional cytokine or stimulation signals were provided to the cells. Tcells express transgenic IL15 and IL15Ra-IL15. […].
IL15 is a homeostatic cytokine that is required for the maintenance of CD8+ memory Tcells and NK cells, and promotes anti-tumor activity. IL15 signals through the IL15 receptor which is composed of a specific alpha chain (IL15Rα or IL15Ra) along with the shared IL2Rb and common gamma chain. Previous work has shown that a membrane bound version of IL15 (mbIL15) can be created by fusing IL15 directly to IL15Rα via a flexible linker that promotes IL15 signaling to the expressing cell (PMID: 27849617, US 2016/0158285 A1) (SEQ ID NO: 1,see Table 1). Herein, it was shown that incorporating mbIL15 in the lentiviral transfer genome increases CAR-T cell numbers 10-fold in vitro (FIGS. 1A-1D). […]

The target in test [8] is GCF receptor with a deletion at aa 715 (GCSFRd715) (UniProt Q99062). In words: cell-based or functional assay.
Sequence of GCF receptor with a deletion at aa 715 (GCSFRd715) (Q99062 25-715 limits assumed, stated change not applied): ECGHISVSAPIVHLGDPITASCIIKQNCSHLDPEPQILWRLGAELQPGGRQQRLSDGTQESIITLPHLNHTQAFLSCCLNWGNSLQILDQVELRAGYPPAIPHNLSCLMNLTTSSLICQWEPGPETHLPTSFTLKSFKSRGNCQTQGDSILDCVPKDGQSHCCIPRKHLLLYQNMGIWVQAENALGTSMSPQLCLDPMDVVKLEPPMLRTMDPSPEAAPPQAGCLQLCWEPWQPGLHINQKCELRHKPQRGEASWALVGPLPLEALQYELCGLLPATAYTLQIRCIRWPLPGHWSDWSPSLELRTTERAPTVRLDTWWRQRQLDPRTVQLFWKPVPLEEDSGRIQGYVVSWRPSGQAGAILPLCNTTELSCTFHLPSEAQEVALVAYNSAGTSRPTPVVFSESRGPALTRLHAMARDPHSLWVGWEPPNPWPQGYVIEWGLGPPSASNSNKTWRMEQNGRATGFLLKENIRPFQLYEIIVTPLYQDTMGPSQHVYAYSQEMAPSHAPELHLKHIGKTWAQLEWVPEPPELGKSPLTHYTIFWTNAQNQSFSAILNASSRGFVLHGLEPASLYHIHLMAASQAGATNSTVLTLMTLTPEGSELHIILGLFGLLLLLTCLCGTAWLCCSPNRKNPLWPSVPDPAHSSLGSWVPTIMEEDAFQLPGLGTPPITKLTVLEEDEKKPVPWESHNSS
The target of test [9] is thrombopoietin receptor (TPOR) (UniProt P40238). As to the kind of experiment: cell-based or functional assay.
Test [10] relates to T cells expressing GCSFRd715. In words: Stimulation of T cells expressing GCSFRd715 for 7 days, flow cytometry. Type of test: cell-based, human. The protocol:
as §1, §3, §2

Turning to “tocilizumab: humanized monoclonal antibody against the interleukin-6 receptor (IL-6R)”, in test [1], the “reversal of CRS” value is “near-immediate reversal of CRS”.

thrombopoietin [TPO]: the “response to stimulation (cell number)” value is on record as “did not respond” in test [2] and “responded” in test [3] (TPOR cells, FIG. 3 top). In addition, the “TPOR fraction after addition” value in [3] worked out at 82%. Also, the “proliferation and anti-tumor functions” value in test [4] is “superior proliferation and anti-tumor functions”. Also, the “phosphorylation of STAT3 and STAT5” value in test [5] is “leads to STAT5 and STAT3 phosphorylation; also recorded: lead to the expected STAT5 and STAT3 phosphorylation”. Further, the “expansion of non-activated (resting) cells” value in test [6] is “led to expansion; also recorded: expand selectively”.

With “mbIL15: membrane bound version of IL15: IL15 fused directly to IL15Rα via a flexible linker (SEQ ID NO: 1)”, the “increase of CAR-T cell numbers” value in [7] (in vitro, mbIL15 in the lentiviral transfer genome) was 10 fold. Besides, the “cell number (expansion)” value in [7] (no additional cytokine or stimulation signals, FIG. 1D) is given as “superior expansion”.

Consider `CC1=NN(c2ccc(C)c(C)c2)C(=O)/C1=N\Nc1cccc(-c2cccc(C(=O)O)c2)c1O` [EP, eltrombopag, reference compound], for which the “TPOR fraction after addition” value in test [3] came to 55.9%.

In turn, “Granulocyte Colony Stimulating Factor (G-CSF) (from UniProt P09919 31-204) (ligand)” registered a transgenic cell fraction after 7 days (flow cytometry) in [8] of 64.9%.

In [9], “recombinant thrombopoietin (TPO) (from UniProt P40225 22-353) (ligand)” returned a transgenic cell fraction after 7 days (flow cytometry) of 82%.

B1: GCSF: Granulocyte Colony Stimulating Factor, cognate cytokine of GCSFRd715 (protein)
chain: TPLGPASSLPQSFLLKCLEQVRKIQGDGAALQEKLCATYKLCHPEELVLLGHSLGIPWAPLSSCPSQALQLAGCLSQLHSGLFLYQGLLQALEGISPELGPTLDTLQLDVADFATTIWQQMEELGMAPALQPTQGAMPAFASAFQRRAGGVLVASHLQSFLEVSYRVLRHLAQP
For the molecule B1, the “response to stimulation (cell number)” value in test [2] is “did not respond”; in test [10] (GCSFRd715 cells, 0.1 μg/ml, FIG. 3 top) it was “responded”. The “GCSFRd715 transgenic cell fraction after addition” value in [10] (0.1 μg/ml, enriched from 15.6%, FIG. 4 top panel) came to 64.9%. The “relative enrichment of transgenic cells (percent transgenic cells)” value in test [10] (GCSFRd715 cells, FIG. 3 bottom) is “Relative enrichment”.
